Reference: IntAct's records for PubMed 16837009

B1: Serine/threonine-protein kinase PAK 2 (Homo sapiens), Q13177 (parent)
chain: MSDNGELEDKPPAPPVRMSSTIFSTGGKDPLSANHSLKPLPSVPEEKKPRHKIISIFSGTEKGSKKKEKERPEISPPSDFEHTIHVGFDAVTGEFTGMPEQWARLLQTSNITKLEQKKNPQAVLDVLKFYDSNTVKQKYLSFTPPEKDGFPSGTPALNAKGTEAPAVVTEEEDDDEETAPPVIAPRPDHTKSIYTRSVIDPVPAPVGDSHVDGAAKSLDKQKKKTKMTDEEIMEKLRTIVSIGDPKKKYTRYEKIGQGASGTVFTATDVALGQEVAIKQINLQKQPKKELIINEILVMKELKNPNIVNFLDSYLVGDELFVVMEYLAGGSLTDVVTETCMDEAQIAAVCRECLQALEFLHANQVIHRDIKSDNVLLGMEGSVKLTDFGFCAQITPEQSKRSTMVGTPYWMAPEVVTRKAYGPKVDIWSLGIMAIEMVEGEPPYLNENPLRALYLIATNGTPELQNPEKLSPIFRDFLNRCLEMDVEKRGSAKELLQHPFLKLAKPLSSLTPLIMAAKEAMKSNR

Variants of: B1
Details: with limk1_human LIMK1, P53667
Chain of limk1_human LIMK1, P53667 (P53667 whole entry, looked up): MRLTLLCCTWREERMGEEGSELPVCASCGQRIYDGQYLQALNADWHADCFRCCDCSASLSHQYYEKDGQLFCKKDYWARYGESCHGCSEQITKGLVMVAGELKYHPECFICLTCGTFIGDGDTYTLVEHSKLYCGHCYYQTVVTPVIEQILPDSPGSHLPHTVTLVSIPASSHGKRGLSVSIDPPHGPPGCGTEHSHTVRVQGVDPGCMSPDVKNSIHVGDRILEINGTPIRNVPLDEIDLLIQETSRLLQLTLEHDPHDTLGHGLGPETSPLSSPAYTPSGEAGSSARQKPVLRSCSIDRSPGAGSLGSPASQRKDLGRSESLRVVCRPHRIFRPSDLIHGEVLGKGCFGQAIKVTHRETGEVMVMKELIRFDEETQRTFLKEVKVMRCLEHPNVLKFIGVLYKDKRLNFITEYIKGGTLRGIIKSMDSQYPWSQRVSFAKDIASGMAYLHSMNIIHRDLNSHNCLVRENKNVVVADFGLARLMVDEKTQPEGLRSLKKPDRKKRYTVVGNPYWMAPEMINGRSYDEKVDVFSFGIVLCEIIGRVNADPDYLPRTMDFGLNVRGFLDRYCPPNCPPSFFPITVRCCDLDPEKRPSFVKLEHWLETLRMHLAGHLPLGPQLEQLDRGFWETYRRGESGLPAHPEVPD

| effect of a mutation on the interaction | Variant |
| --- | --- |
| increasing interaction | L449Q |
